The values below come from paper PMC3712923.

Assay [1] addresses β-lactamase-SBP fusion. Kind of assay: SPR; BIAcoreX; purified β-lactamase-SBP amine-coupled to a CM5 chip, streptavidin variant as analyte; blank flow cell as reference.
Assay [2] addresses wild-type streptavidin (UniProt P22629). Kind of assay: affinity column chromatography; streptavidin variant coupled to Affi-gel 15; culture supernatant with β-lactamase-SBP loaded at 142-150% of the theoretical column binding capacity (overloaded); leakage during washing; pure wash fractions pooled with the elution fractions.
Assay [3] has as its target SAVSBPM18 engineered streptavidin (S27A, G48T) (UniProt P22629). Described as above.
Assay [4] concerns the target wild-type streptavidin (UniProt P22629). Kind of assay: affinity column chromatography; streptavidin variant coupled to Affi-gel 15; culture supernatant with β-lactamase-SBP loaded at 20% of the theoretical column binding capacity (non-overloaded); PBS wash, elution with 5 mM d-biotin.
Assay [5] deals with SAVSBPM18 engineered streptavidin (S27A, G48T) (UniProt P22629). The description is as above.
Assay [6] has the same target. Nature of the assay: affinity column chromatography; streptavidin variant coupled to Affi-gel 15; culture supernatant with β-lactamase-SBP loaded at 142-150% of the theoretical column binding capacity (overloaded); leakage during washing; pure wash fractions pooled with the elution fractions. This is another data set of the same source.

Chain of SAVSBPM18 engineered streptavidin (S27A, G48T) (P22629 25-183 S51A/G72T): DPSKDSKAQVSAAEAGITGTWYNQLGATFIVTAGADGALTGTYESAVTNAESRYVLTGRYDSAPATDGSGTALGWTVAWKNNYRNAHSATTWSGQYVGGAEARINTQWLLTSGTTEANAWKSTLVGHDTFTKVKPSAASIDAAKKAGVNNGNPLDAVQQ
Chain of wild-type streptavidin (from UniProt P22629 25-183) (natural protein) (P22629 25-183): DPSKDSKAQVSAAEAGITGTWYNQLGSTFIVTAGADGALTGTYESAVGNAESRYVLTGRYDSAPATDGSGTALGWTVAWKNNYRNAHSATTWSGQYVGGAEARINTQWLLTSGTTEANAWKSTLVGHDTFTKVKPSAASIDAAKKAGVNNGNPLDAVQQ
Chain of wild-type streptavidin (UniProt P22629) (P22629 25-183): as above

“SAVSBPM18 engineered streptavidin (S27A, G48T) (from UniProt P22629 25-183) (designed binder)”: in assay [1], the Kd was found to be 0.0157 µM, the off-rate (koff) worked out at 0.000711 s⁻¹ and the kon is 45300 M⁻¹ s⁻¹.
In the same order, the values of “wild-type streptavidin (from UniProt P22629 25-183) (natural protein)” are 0.00859 µM, 0.000816 s⁻¹ and 95000 M⁻¹ s⁻¹.
As to β-lactamase-SBP fusion, the percent recovery in assay [2] came to 51%; in assay [3] it was 58%; in assay [4] it was 90%; in assay [5] it was 91%; in assay [6], 51%.

In general, Kd refers to the constant that tells how readily two partners part at equilibrium. Usually koff stands for the rate constant with which the complex falls apart. Usually kon stands for the second-order rate constant of association. Read a high kon as fast association.
